B1: library; numbered along this chain (parent)
chain: MAAAAAAAAEQQSSNGPVKKSMREKAVERRSVNKEHNSNFKAGYIPIDEDRLHKTGLRGRKGNLAICVIILLFILAVINLIITLVIWAVIRIGPNGCDSMEFHESGLLRFKQVSDMGVIHPLYKSTVGGRRNENLVITGNNQPIVFQQGTTKLSVENNKTSITSDIGMQFFDPRTQNILFSTDYETHEFHLPSGVKSLNVQKASTERITSNATSDLNIKVDGRAIVRGNEGVFIMGKTIEFHMGGNMELKAENSIILNGSVMVSTTRLPSSSSGDQLGSGDWVRYKLCMCADGTLFKVQVTSQNMGCQISDNPCGNTH

Variants of: B1
Assay: SGCB cell-surface expression functional score (HA stain, bin4 vs bin1, normalised to synonymous) (log10 ratio); higher = more cell-surface SGCB (functional)
Summary of the method: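 Human beta-sarcoglycan, tagged with HA and fused to YFP, was built into codon-saturation libraries and delivered by lentivirus at MOI <0.1 into HEK293 cells that stably express alpha-, gamma- and delta-sarcoglycan. After 72 hours, YFP-positive cells were sorted and grown for 5–7 days, then stained on ice with Alexa Fluor 647 anti-HA, fixed, sorted into four 5% intensity bins and amplicon-sequenced. Each variant's functional score is the log ratio of its frequency in the highest bin to that in the lowest bin, taken as the median across codons and transductions. Transductions were done in duplicate, and synonymous variants were scaled per section to mean 0, SD 0.5.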

Going from MAAAAAAAAEQQSSNGPVKKSMREKAVERRSVNKEHNSNFKAGYIPIDEDRLHKTGLRGRKGNLAICVIILLFILAVINLIITLVIWAVIRIGPNGCDSMEFHESGLLRFKQVSDMGVIHPLYKSTVGGRRNENLVITGNNQPIVFQQGTTKLSVENNKTSITSDIGMQFFFPRTQNILFSTDYETHEFHLPSGVKSLNVQKASTERITSNATSDLNIKVDGRAIVRGNEGVFIMGKTIEFHMGGNMELKAENSIILNGSVMVSTTRLPSSSSGDQLGSGDWVRYKLCMCADGTLFKVQVTSQNMGCQISDNPCGNTH [D172F] to MAAAAAAAAEQQSSNGPVKKSMREKAVERRSVNKEHNSNFKAGYIPIDEDRLHKTGLRGRKGNLAICVIILLFILAVINLIITLVIWAVIRIGPNGCDSMEFHESGLLRFKQVSDMGVIHPLYKSTVGGRRNENLVITGNNQPIVFQQGTTKLSVENNKTSITSDIGMQFFCPRTQNILFSTDYETHEFHLPSGVKSLNVQKASTERITSNATSDLNIKVDGRAIVRGNEGVFIMGKTIEFHMGGNMELKAENSIILNGSVMVSTTRLPSSSSGDQLGSGDWVRYKLCMCADGTLFKVQVTSQNMGCQISDNPCGNTH [D172C], the “SGCB cell-surface expression functional score (log10)” value rises from -0.3 to 0.95.

First: MAAAAAAAAEQQSSNGPVKKSMREKAVERRSVNKEHNSNFKAGYIPIDEDRLHKTGLRGRKGNLAICVIILLFILAVINLIITLVIWAVIRIGPNGCDSMEFHESGLLRFKQVSDMGVIHPLYKSTVGGRRNENLVITGNNQPIVFQQGTTKLSVENNKTSITSDIGMQFFAPRTQNILFSTDYETHEFHLPSGVKSLNVQKASTERITSNATSDLNIKVDGRAIVRGNEGVFIMGKTIEFHMGGNMELKAENSIILNGSVMVSTTRLPSSSSGDQLGSGDWVRYKLCMCADGTLFKVQVTSQNMGCQISDNPCGNTH [D172A]
Second: MAAAAAAAAEQQSSNGPVKKSMREKAVERRSVNKEHNSNFKAGYIPIDEDRLHKTGLRGRKGNLAICVIILLFILAVINLIITLVIWAVIRIGPNGCDSMEFHESGLLRFKQVSDMGVIHPLYKSTVGGRRNENLVITGNNQPIVFQQGTTKLSVENNKTSITSDIGMQFFEPRTQNILFSTDYETHEFHLPSGVKSLNVQKASTERITSNATSDLNIKVDGRAIVRGNEGVFIMGKTIEFHMGGNMELKAENSIILNGSVMVSTTRLPSSSSGDQLGSGDWVRYKLCMCADGTLFKVQVTSQNMGCQISDNPCGNTH [D172E]
The “SGCB cell-surface expression functional score (log10)” value of the first is lower: 0.03 for the first, 0.42 for the second.

First: MAAAAAAAAEQQSSNGPVKKSMREKAVERRSVNKEHNSNFKAGYIPIDEDRLHKTGLRGRKGNLAICVIILLFILAVINLIITLVIWAVIRIGPNGCDSMEFHESGLLRFKQVSDMGVIHPLYKSTVGGRRNENLVITGNNQPIVFQQGTTKLSVENNKTSITSDIGMQFADPRTQNILFSTDYETHEFHLPSGVKSLNVQKASTERITSNATSDLNIKVDGRAIVRGNEGVFIMGKTIEFHMGGNMELKAENSIILNGSVMVSTTRLPSSSSGDQLGSGDWVRYKLCMCADGTLFKVQVTSQNMGCQISDNPCGNTH [F171A]
Second: MAAAAAAAAEQQSSNGPVKKSMREKAVERRSVNKEHNSNFKAGYIPIDEDRLHKTGLRGRKGNLAICVIILLFILAVINLIITLVIWAVIRIGPNGCDSMEFHESGLLRFKQVSDMGVIHPLYKSTVGGRRNENLVITGNNQPIVFQQGTTKLSVENNKTSITSDIGMQFSDPRTQNILFSTDYETHEFHLPSGVKSLNVQKASTERITSNATSDLNIKVDGRAIVRGNEGVFIMGKTIEFHMGGNMELKAENSIILNGSVMVSTTRLPSSSSGDQLGSGDWVRYKLCMCADGTLFKVQVTSQNMGCQISDNPCGNTH [F171S]
The “SGCB cell-surface expression functional score (log10)” value of the first is lower: -0.81 for the first, -0.28 for the second.

First: MAAAAAAAAEQQSSNGPVKKSMREKAVERRSVNKEHNSNFKAGYIPIDEDRLHKTGLRGRKGNLAICVIILLFILAVINLIITLVIWAVIRIGPNGCDSMEFHESGLLRFKQVSDMGVIHPLYKSTVGGRRNENLVITGNNQPIVFQQGTTKLSVENNKTSITSDIGMQFPDPRTQNILFSTDYETHEFHLPSGVKSLNVQKASTERITSNATSDLNIKVDGRAIVRGNEGVFIMGKTIEFHMGGNMELKAENSIILNGSVMVSTTRLPSSSSGDQLGSGDWVRYKLCMCADGTLFKVQVTSQNMGCQISDNPCGNTH [F171P]
Second: MAAAAAAAAEQQSSNGPVKKSMREKAVERRSVNKEHNSNFKAGYIPIDEDRLHKTGLRGRKGNLAICVIILLFILAVINLIITLVIWAVIRIGPNGCDSMEFHESGLLRFKQVSDMGVIHPLYKSTVGGRRNENLVITGNNQPIVFQQGTTKLSVENNKTSITSDIGMQFKDPRTQNILFSTDYETHEFHLPSGVKSLNVQKASTERITSNATSDLNIKVDGRAIVRGNEGVFIMGKTIEFHMGGNMELKAENSIILNGSVMVSTTRLPSSSSGDQLGSGDWVRYKLCMCADGTLFKVQVTSQNMGCQISDNPCGNTH [F171K]
The “SGCB cell-surface expression functional score (log10)” value of the first is lower: -0.43 for the first, 0.12 for the second.

MAAAAAAAAEQQSSNGPVKKSMREKAVERRSVNKEHNSNFKAGYIPIDEDRLHKTGLRGRKGNLAICVIILLFILAVINLIITLVIWAVIRIGPNGCDSMEFHESGLLRFKQVSDMGVIHPLYKSTVGGRRNENLVITGNNQPIVFQQGTTKLSVENNKTSITSDIGMQFNDPRTQNILFSTDYETHEFHLPSGVKSLNVQKASTERITSNATSDLNIKVDGRAIVRGNEGVFIMGKTIEFHMGGNMELKAENSIILNGSVMVSTTRLPSSSSGDQLGSGDWVRYKLCMCADGTLFKVQVTSQNMGCQISDNPCGNTH [F171N] and MAAAAAAAAEQQSSNGPVKKSMREKAVERRSVNKEHNSNFKAGYIPIDEDRLHKTGLRGRKGNLAICVIILLFILAVINLIITLVIWAVIRIGPNGCDSMEFHESGLLRFKQVSDMGVIHPLYKSTVGGRRNENLVITGNNQPIVFQQGTTKLSVENNKTSITSDIGMQFYDPRTQNILFSTDYETHEFHLPSGVKSLNVQKASTERITSNATSDLNIKVDGRAIVRGNEGVFIMGKTIEFHMGGNMELKAENSIILNGSVMVSTTRLPSSSSGDQLGSGDWVRYKLCMCADGTLFKVQVTSQNMGCQISDNPCGNTH [F171Y] are within 0.2 log units of each other in “SGCB cell-surface expression functional score (log10)” value: -0.08 for the first, 0.03 for the second.

Compared with MAAAAAAAAEQQSSNGPVKKSMREKAVERRSVNKEHNSNFKAGYIPIDEDRLHKTGLRGRKGNLAICVIILLFILAVINLIITLVIWAVIRIGPNGCDSMEFHESGLLRFKQVSDMGVIHPLYKSTVGGRRNENLVITGNNQPIVFQQGTTKLSVENNKTSITSDIGMQFEDPRTQNILFSTDYETHEFHLPSGVKSLNVQKASTERITSNATSDLNIKVDGRAIVRGNEGVFIMGKTIEFHMGGNMELKAENSIILNGSVMVSTTRLPSSSSGDQLGSGDWVRYKLCMCADGTLFKVQVTSQNMGCQISDNPCGNTH [F171E], MAAAAAAAAEQQSSNGPVKKSMREKAVERRSVNKEHNSNFKAGYIPIDEDRLHKTGLRGRKGNLAICVIILLFILAVINLIITLVIWAVIRIGPNGCDSMEFHESGLLRFKQVSDMGVIHPLYKSTVGGRRNENLVITGNNQPIVFQQGTTKLSVENNKTSITSDIGMQFQDPRTQNILFSTDYETHEFHLPSGVKSLNVQKASTERITSNATSDLNIKVDGRAIVRGNEGVFIMGKTIEFHMGGNMELKAENSIILNGSVMVSTTRLPSSSSGDQLGSGDWVRYKLCMCADGTLFKVQVTSQNMGCQISDNPCGNTH [F171Q] is higher in “SGCB cell-surface expression functional score (log10)” value: -1.22 for the first, 0.8 for the second.

MAAAAAAAAEQQSSNGPVKKSMREKAVERRSVNKEHNSNFKAGYIPIDEDRLHKTGLRGRKGNLAICVIILLFILAVINLIITLVIWAVIRIGPNGCDSMEFHESGLLRFKQVSDMGVIHPLYKSTVGGRRNENLVITGNNQPIVFQQGTTKLSVENNKTSITSDIGMQFRDPRTQNILFSTDYETHEFHLPSGVKSLNVQKASTERITSNATSDLNIKVDGRAIVRGNEGVFIMGKTIEFHMGGNMELKAENSIILNGSVMVSTTRLPSSSSGDQLGSGDWVRYKLCMCADGTLFKVQVTSQNMGCQISDNPCGNTH [F171R] and MAAAAAAAAEQQSSNGPVKKSMREKAVERRSVNKEHNSNFKAGYIPIDEDRLHKTGLRGRKGNLAICVIILLFILAVINLIITLVIWAVIRIGPNGCDSMEFHESGLLRFKQVSDMGVIHPLYKSTVGGRRNENLVITGNNQPIVFQQGTTKLSVENNKTSITSDIGMQFLDPRTQNILFSTDYETHEFHLPSGVKSLNVQKASTERITSNATSDLNIKVDGRAIVRGNEGVFIMGKTIEFHMGGNMELKAENSIILNGSVMVSTTRLPSSSSGDQLGSGDWVRYKLCMCADGTLFKVQVTSQNMGCQISDNPCGNTH [F171L] are within 0.2 log units of each other in “SGCB cell-surface expression functional score (log10)” value: 0.04 for the first, 0.15 for the second.

First: MAAAAAAAAEQQSSNGPVKKSMREKAVERRSVNKEHNSNFKAGYIPIDEDRLHKTGLRGRKGNLAICVIILLFILAVINLIITLVIWAVIRIGPNGCDSMEFHESGLLRFKQVSDMGVIHPLYKSTVGGRRNENLVITGNNQPIVFQQGTTKLSVENNKTSITSDIGMQFTDPRTQNILFSTDYETHEFHLPSGVKSLNVQKASTERITSNATSDLNIKVDGRAIVRGNEGVFIMGKTIEFHMGGNMELKAENSIILNGSVMVSTTRLPSSSSGDQLGSGDWVRYKLCMCADGTLFKVQVTSQNMGCQISDNPCGNTH [F171T]
Second: MAAAAAAAAEQQSSNGPVKKSMREKAVERRSVNKEHNSNFKAGYIPIDEDRLHKTGLRGRKGNLAICVIILLFILAVINLIITLVIWAVIRIGPNGCDSMEFHESGLLRFKQVSDMGVIHPLYKSTVGGRRNENLVITGNNQPIVFQQGTTKLSVENNKTSITSDIGMQFVDPRTQNILFSTDYETHEFHLPSGVKSLNVQKASTERITSNATSDLNIKVDGRAIVRGNEGVFIMGKTIEFHMGGNMELKAENSIILNGSVMVSTTRLPSSSSGDQLGSGDWVRYKLCMCADGTLFKVQVTSQNMGCQISDNPCGNTH [F171V]
The “SGCB cell-surface expression functional score (log10)” value of the first is higher: 0.72 for the first, -0.07 for the second.

MAAAAAAAAEQQSSNGPVKKSMREKAVERRSVNKEHNSNFKAGYIPIDEDRLHKTGLRGRKGNLAICVIILLFILAVINLIITLVIWAVIRIGPNGCDSMEFHESGLLRFKQVSDMGVIHPLYKSTVGGRRNENLVITGNNQPIVFQQGTTKLSVENNKTSITSDIGMQFMDPRTQNILFSTDYETHEFHLPSGVKSLNVQKASTERITSNATSDLNIKVDGRAIVRGNEGVFIMGKTIEFHMGGNMELKAENSIILNGSVMVSTTRLPSSSSGDQLGSGDWVRYKLCMCADGTLFKVQVTSQNMGCQISDNPCGNTH [F171M] and MAAAAAAAAEQQSSNGPVKKSMREKAVERRSVNKEHNSNFKAGYIPIDEDRLHKTGLRGRKGNLAICVIILLFILAVINLIITLVIWAVIRIGPNGCDSMEFHESGLLRFKQVSDMGVIHPLYKSTVGGRRNENLVITGNNQPIVFQQGTTKLSVENNKTSITSDIGMQFIDPRTQNILFSTDYETHEFHLPSGVKSLNVQKASTERITSNATSDLNIKVDGRAIVRGNEGVFIMGKTIEFHMGGNMELKAENSIILNGSVMVSTTRLPSSSSGDQLGSGDWVRYKLCMCADGTLFKVQVTSQNMGCQISDNPCGNTH [F171I] are within 0.2 log units of each other in “SGCB cell-surface expression functional score (log10)” value: 1.04 for the first, 0.86 for the second.

In the case of MAAAAAAAAEQQSSNGPVKKSMREKAVERRSVNKEHNSNFKAGYIPIDEDRLHKTGLRGRKGNLAICVIILLFILAVINLIITLVIWAVIRIGPNGCDSMEFHESGLLRFKQVSDMGVIHPLYKSTVGGRRNENLVITGNNQPIVFQQGTTKLSVENNKTSITSDIGMQFCDPRTQNILFSTDYETHEFHLPSGVKSLNVQKASTERITSNATSDLNIKVDGRAIVRGNEGVFIMGKTIEFHMGGNMELKAENSIILNGSVMVSTTRLPSSSSGDQLGSGDWVRYKLCMCADGTLFKVQVTSQNMGCQISDNPCGNTH [F171C], the “SGCB cell-surface expression functional score (log10)” value is reported as -1.66.

— the supplement of paper PMC10266784
